# The supplement of paper PMC10065799, “High-throughput profiling of sequence recognition by tyrosine kinases and SH2 domains using bacterial peptide display” (eLife, 2023)
# Target: Grb2 SH2 (UniProt P62993)
# Test: SH2 binding enrichment of the phosphorylated peptide, bacterial display (enrichment ratio); higher = better substrate or ligand; peptides without Tyr show the background
# 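Throughout, for SH2 binding enrichment of the phosphorylated peptide, bacterial display: peptide library displayed on the E. coli surface as eCPX fusions, selected cells deep-sequenced, score is each peptide's frequency after selection divided by its frequency in the input.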
# Sequence of Grb2 SH2 (P62993 whole entry, looked up): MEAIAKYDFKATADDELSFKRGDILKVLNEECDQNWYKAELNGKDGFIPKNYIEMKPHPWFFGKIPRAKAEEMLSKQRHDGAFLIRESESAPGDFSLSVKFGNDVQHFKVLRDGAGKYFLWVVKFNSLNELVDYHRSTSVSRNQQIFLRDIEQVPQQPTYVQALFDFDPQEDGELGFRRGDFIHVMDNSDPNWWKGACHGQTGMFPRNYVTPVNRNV
row,Sequence,SH2 binding enrichment
1,EFQKKYSDADI [CKAP5_Y1860_K1857Q_YF],0.772
2,MKGDYYCYLAE [YWHAG_Y131_R132C],0.789
3,PESCLYKESWL [IQGAP2_Y630],0.916
4,KFLENYLNRLL [PLD2_Y169_YF],1.67
5,IGEGTYGQVFK [CDK13_Y716_YF],0.774
6,KRELRYMHSRV [ABCD1_Y281_G277R],1.43
7,KELSSYKHLTL [SLIT2_Y776_N775S],0.757
8,QMVGMYASSYM [AVPR2_Y124],0.806
9,GGFSRYDEGSG [RECQL5_Y484_D480G],0.858
10,AVLSLYASGST [ACTG2_Y144_R148S],1.06
11,QAPPIYLDVLG [NTRK1_Y791_V790I],0.791
12,FQASFYRRGDR [LTK_Y677_R673Q_YF],0.411
13,QDLRLYRPHLA [BTK_Y617_G613D],0.728
14,VDSNPYSRLMA [UBA5_Y53],0.699
15,KTGNIYRTEYG [MRPL3_Y265_M261T],0.829
16,SLIDMYSEVLA [OPA1_Y268_D273A],0.966
17,EDASEYFENYI [PARP4_Y214],0.933
18,DKGTLYIVEQI [PLBD1_Y375],0.711
19,KDAGDYKYKAK [LRIT3_Y326_C328Y],0.68
20,TSSAVYMNLAS [GATAD2B_Y317_I316V],7.6
21,NIRKKYFRAIL [CHD7_Y1217_Q1214R_YF],0.764
22,RGKEPYTKKAL [TTC21B_Y160],0.785
23,SHSMRYFDTAV [HLA-C_Y31],0.716
24,AGGTRYRYVSQ [UCN3_Y95_R91G],0.777
25,AEMTGYVMTRW [MAPK13_Y182_V184M],0.67
26,VATRWYRSPEL [CDKL5_Y177],1.07
27,TSKLSYLDPRI [TOP1_Y723_N722S],0.833
28,GDFFRSLAEVA [YWHAG_Y133_Y133S_YF],0.913
29,DSMQSYDLDFP [UNC13B_Y243_YF],0.782

# Target: SHP2-C SH2
# Test: as above
row,Sequence,SH2 binding enrichment
1,EFQKKYSDADI [CKAP5_Y1860_K1857Q_YF],0.59
2,MKGDYYCYLAE [YWHAG_Y131_R132C],0.779
3,PESCLYKESWL [IQGAP2_Y630],1.06
4,KFLENYLNRLL [PLD2_Y169_YF],1.79
5,IGEGTYGQVFK [CDK13_Y716_YF],0.808
6,KRELRYMHSRV [ABCD1_Y281_G277R],1.65
7,KELSSYKHLTL [SLIT2_Y776_N775S],0.497
8,QMVGMYASSYM [AVPR2_Y124],0.946
9,GGFSRYDEGSG [RECQL5_Y484_D480G],0.62
10,AVLSLYASGST [ACTG2_Y144_R148S],0.907
11,QAPPIYLDVLG [NTRK1_Y791_V790I],0.734
12,FQASFYRRGDR [LTK_Y677_R673Q_YF],0.38
13,QDLRLYRPHLA [BTK_Y617_G613D],0.555
14,VDSNPYSRLMA [UBA5_Y53],3.31
15,KTGNIYRTEYG [MRPL3_Y265_M261T],0.91
16,SLIDMYSEVLA [OPA1_Y268_D273A],0.762
17,EDASEYFENYI [PARP4_Y214],0.675
18,DKGTLYIVEQI [PLBD1_Y375],0.88
19,KDAGDYKYKAK [LRIT3_Y326_C328Y],0.515
20,TSSAVYMNLAS [GATAD2B_Y317_I316V],1.78
21,NIRKKYFRAIL [CHD7_Y1217_Q1214R_YF],0.544
22,RGKEPYTKKAL [TTC21B_Y160],0.78
23,SHSMRYFDTAV [HLA-C_Y31],0.467
24,AGGTRYRYVSQ [UCN3_Y95_R91G],0.438
25,AEMTGYVMTRW [MAPK13_Y182_V184M],0.594
26,VATRWYRSPEL [CDKL5_Y177],0.604
27,TSKLSYLDPRI [TOP1_Y723_N722S],0.548
28,GDFFRSLAEVA [YWHAG_Y133_Y133S_YF],0.696
29,DSMQSYDLDFP [UNC13B_Y243_YF],0.686

# Target: c-Src SH2
# Test: as above
row,Sequence,SH2 binding enrichment
1,EFQKKYSDADI [CKAP5_Y1860_K1857Q_YF],0.459
2,MKGDYYCYLAE [YWHAG_Y131_R132C],1.36
3,PESCLYKESWL [IQGAP2_Y630],0.523
4,KFLENYLNRLL [PLD2_Y169_YF],1.51
5,IGEGTYGQVFK [CDK13_Y716_YF],0.426
6,KRELRYMHSRV [ABCD1_Y281_G277R],1.49
7,KELSSYKHLTL [SLIT2_Y776_N775S],0.481
8,QMVGMYASSYM [AVPR2_Y124],1.23
9,GGFSRYDEGSG [RECQL5_Y484_D480G],0.459
10,AVLSLYASGST [ACTG2_Y144_R148S],0.611
11,QAPPIYLDVLG [NTRK1_Y791_V790I],0.413
12,FQASFYRRGDR [LTK_Y677_R673Q_YF],0.295
13,QDLRLYRPHLA [BTK_Y617_G613D],0.581
14,VDSNPYSRLMA [UBA5_Y53],1.57
15,KTGNIYRTEYG [MRPL3_Y265_M261T],0.463
16,SLIDMYSEVLA [OPA1_Y268_D273A],0.553
17,EDASEYFENYI [PARP4_Y214],0.498
18,DKGTLYIVEQI [PLBD1_Y375],0.413
19,KDAGDYKYKAK [LRIT3_Y326_C328Y],0.415
20,TSSAVYMNLAS [GATAD2B_Y317_I316V],1.88
21,NIRKKYFRAIL [CHD7_Y1217_Q1214R_YF],0.356
22,RGKEPYTKKAL [TTC21B_Y160],0.651
23,SHSMRYFDTAV [HLA-C_Y31],0.51
24,AGGTRYRYVSQ [UCN3_Y95_R91G],0.438
25,AEMTGYVMTRW [MAPK13_Y182_V184M],0.467
26,VATRWYRSPEL [CDKL5_Y177],0.523
27,TSKLSYLDPRI [TOP1_Y723_N722S],0.535
28,GDFFRSLAEVA [YWHAG_Y133_Y133S_YF],0.4
29,DSMQSYDLDFP [UNC13B_Y243_YF],0.605

# System: AncSZ;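 note: 11-residue human phosphosite peptides and single-mutation variants displayed on the E. coli surface, counted by deep sequencing, each peptide's frequency after selection divided by its frequency in the unselected input library; frequency after pTyr selection over input frequency; kinase dosed for 20-30% of maximal phosphorylation in three min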
# Test: phosphorylation enrichment, bacterial display (enrichment ratio); higher = better substrate or ligand; peptides without Tyr show the background
row,Sequence,phosphorylation enrichment
1,EFQKKYSDADI [CKAP5_Y1860_K1857Q_YF],0.837
2,MKGDYYCYLAE [YWHAG_Y131_R132C],3
3,PESCLYKESWL [IQGAP2_Y630],2.25
4,KFLENYLNRLL [PLD2_Y169_YF],0.694
5,IGEGTYGQVFK [CDK13_Y716_YF],0.456
6,KRELRYMHSRV [ABCD1_Y281_G277R],0.472
7,KELSSYKHLTL [SLIT2_Y776_N775S],0.556
8,QMVGMYASSYM [AVPR2_Y124],1.27
9,GGFSRYDEGSG [RECQL5_Y484_D480G],0.733
10,AVLSLYASGST [ACTG2_Y144_R148S],1.08
11,QAPPIYLDVLG [NTRK1_Y791_V790I],1.31
12,FQASFYRRGDR [LTK_Y677_R673Q_YF],0.717
13,QDLRLYRPHLA [BTK_Y617_G613D],0.578
14,VDSNPYSRLMA [UBA5_Y53],0.608
15,KTGNIYRTEYG [MRPL3_Y265_M261T],0.555
16,SLIDMYSEVLA [OPA1_Y268_D273A],1.24
17,EDASEYFENYI [PARP4_Y214],1.62
18,DKGTLYIVEQI [PLBD1_Y375],0.985
19,KDAGDYKYKAK [LRIT3_Y326_C328Y],0.398
20,TSSAVYMNLAS [GATAD2B_Y317_I316V],0.759
21,NIRKKYFRAIL [CHD7_Y1217_Q1214R_YF],0.583
22,RGKEPYTKKAL [TTC21B_Y160],0.815
23,SHSMRYFDTAV [HLA-C_Y31],0.57
24,AGGTRYRYVSQ [UCN3_Y95_R91G],0.529
25,AEMTGYVMTRW [MAPK13_Y182_V184M],1.29
26,VATRWYRSPEL [CDKL5_Y177],0.834
27,TSKLSYLDPRI [TOP1_Y723_N722S],0.639
28,GDFFRSLAEVA [YWHAG_Y133_Y133S_YF],0.871
29,DSMQSYDLDFP [UNC13B_Y243_YF],1.15
